# Patent publication US20230173068A1 (BIO THERA SOLUTIONS, published 2023)
# Key:
# [1] = target: T1, FcγRIIIa (V158)-biotin (ACRO Biosystems, Cat #CDA-H82E9) (UniProt P08637 17-208, biotin (site not stated)); assay: BLI (Octet QKe), FcγRIIIa (V158)-biotin on SA biosensor, antibody as analyte
# T1 construct: Bought biotinylated protein, immobilised on an SA biosensor
# Experimental: Specific experimental method for binding to FcγRIIIa (V158) were as follows. FcγRIIIa (V158)-biotin (ACRO Biosystems, Cat #CDA-H82E9) was diluted to 1 μg/mL. An SA Biosensor (Fertebio, Cat #18-5019) was immobilize in FcγRIIIa (V158)-biotin dilution to a signal of approximately 0.6 nm. […] The cycle of regeneration and neutralization was performed 3 times. The data was processed and analyzed using Data Analysis 8.2, and the sample data was fitted after sample blank (PBS) signal subtraction to obtain an affinity constant (KD).
# [2] = target: T2, FcγRIIIa (F158)-biotin (ACRO Biosystems, Cat #CDA-H82E8) (UniProt P08637 17-208, biotin (site not stated)); assay: BLI (Octet QKe), FcγRIIIa (F158)-biotin on SA biosensor, antibody as analyte
# T2 construct: Bought biotinylated protein, immobilised on an SA biosensor
# T2 sequence (P08637 17-208 limits assumed): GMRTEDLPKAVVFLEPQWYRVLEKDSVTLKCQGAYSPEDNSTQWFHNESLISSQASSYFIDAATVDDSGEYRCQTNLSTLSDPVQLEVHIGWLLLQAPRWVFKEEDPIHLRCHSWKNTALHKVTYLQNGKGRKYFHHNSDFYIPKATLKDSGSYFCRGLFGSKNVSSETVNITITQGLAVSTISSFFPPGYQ
# Experimental: Specific experimental method for binding to FcγRIIIa (F158) were as follows. FcγRIIIa (F158)-biotin (ACRO Biosystems, Cat #CDA-H82E8) was diluted to 1 μg/mL. An SA Biosensor (Fertebio, Cat #18-5019) was immobilize in FcγRIIIa (F158)-biotin dilution to a signal of approximately 0.6 nm.
# The cycle of regeneration and neutralization was performed 3 times. The data was processed and analyzed using Data Analysis 8.2, and the sample data was fitted after sample blank (PBS) signal subtraction to obtain an affinity constant (KD).
# [3] = target: T3, FcRn-biotin (ACRO Biosystems, Cat #FCM-H82W4) (UniProt P55899 24-297; P61769 21-119, biotin (site not stated)); assay: BLI (Octet QKe), FcRn-biotin on SA biosensor, antibody as analyte
# T3 construct: Bought biotinylated protein, immobilised on a streptavidin (SA) biosensor; the natural receptor is a heterodimer of FCGRT and B2M
# T3 sequence (P55899 24-297 limits assumed, form in doubt, chain 1 of 2): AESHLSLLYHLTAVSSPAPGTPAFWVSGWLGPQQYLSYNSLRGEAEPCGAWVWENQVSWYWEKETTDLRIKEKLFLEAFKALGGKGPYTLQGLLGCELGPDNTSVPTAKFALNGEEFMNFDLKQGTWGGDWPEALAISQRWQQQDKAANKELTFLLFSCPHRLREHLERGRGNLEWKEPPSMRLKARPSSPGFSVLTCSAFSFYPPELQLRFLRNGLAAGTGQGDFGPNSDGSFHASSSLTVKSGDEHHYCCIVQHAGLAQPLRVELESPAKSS
# T3 sequence (P61769 21-119 limits assumed, form in doubt, chain 2 of 2): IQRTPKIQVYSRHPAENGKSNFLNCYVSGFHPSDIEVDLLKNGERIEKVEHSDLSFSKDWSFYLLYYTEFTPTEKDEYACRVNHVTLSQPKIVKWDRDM
# Experimental: The cycle of regeneration and neutralization was performed 3 times.
# T1 sequence (P08637 17-208 F176V): as the sequence (P08637 17-208 limits assumed) above, with F160V counted along it
binder,measurement,setting,value
"Simponi (golimumab), commercially available (antibody, human IgG1, kappa, Bought product (Janssen Biologics B.V.); It differs from Antibody A by a higher NGNA glycosylation level; also called commercially available anti-TNF-α antibody; copies: 2 + 2) heavy: not shown light: not shown",Kd,[1],20.1 to 42.2 nM
same,Kd,[2],93 to 111 nM
same,Kd,[3],6.09 to 8.67 nM
